# Experimental data: patent US20250059285A1 (ARGENX, published 2025)
# T1: recombinant human Charcot-Leyden crystals (crystalline galectin-10) (human, UniProt Q05315 2-142, limits assumed)
# T1 sequence: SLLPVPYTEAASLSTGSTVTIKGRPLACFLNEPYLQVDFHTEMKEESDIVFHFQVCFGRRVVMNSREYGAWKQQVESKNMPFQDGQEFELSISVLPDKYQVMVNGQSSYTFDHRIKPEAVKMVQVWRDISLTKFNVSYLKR
# T2: human Gal10-His (human, UniProt Q05315 2-142, limits assumed)
# T2 construct: also called hGal10-His; human Gal10-His tagged; not shown: His tag
# T2 sequence: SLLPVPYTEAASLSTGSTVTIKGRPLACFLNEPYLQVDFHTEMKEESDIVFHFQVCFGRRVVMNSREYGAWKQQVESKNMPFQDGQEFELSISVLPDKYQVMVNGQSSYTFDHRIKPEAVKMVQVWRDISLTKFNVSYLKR
# Key:
# [1] = molecular target: T1, recombinant human Charcot-Leyden …; test: cell-based or functional assay
# [2] = molecular target: T3, cynomolgus Gal10-His (WGS isoform) (cynomolgus); test: SPR on cynomolgus Gal10-His (WGS isoform)
# T3 construct: also called cynomolgus antigen
# [3] = molecular target: T3, cynomolgus Gal10-His (WGS isoform); test: SPR, summary table, cynomolgus_WGS Gal10
# human Gal10-His [4] = molecular target: T2, human Gal10-His; test: SPR Biacore 3000, purified hFab on captured Gal10-His
# Experimental: The binding properties of the selected Fab clones to human Gal10 were analyzed via a capture method established on a Biacore 3000 instrument. Two concentrations of the selected Fab clones were tested on human Gal10-His immobilized on a CM5 chip coated with a monoclonal anti-His. As controls, the clone g7B07 and g7B07_N53A were injected at the beginning and the end of the run. Briefly, a CM5 chip was coated with a monoclonal anti-His antibody (4000 RU), then a fixed concentration of the human Gal10-His (25 μg/mL) was captured on the anti-His chip before receiving two concentrations of the clones in the human Fab backbone.
# human Gal10-His [5] = molecular target: T2, human Gal10-His; test: SPR slope against calibrators on captured Gal10-His; T0 sample
# Experimental: The binding properties of the seven selected clones following two weeks of temperature stress was analysed using an optimized capture method on a Biacore 3000 instrument. The binding properties of the stressed samples were determined, compared to the calibration point, and expressed as a percentage of Relative Activity (% RA).
# Briefly, a capture method was set-up on a Biacore 3000 instrument. For this purpose, a CM5 chip was coated with a monoclonal anti-His antibody (4000 RU), then a fixed concentration of the human Gal10-His (25 μg/mL) was captured on the anti-His chip before receiving duplicate injections of the calibrators, QC samples and temperature stressed samples of each clone. The slope of each injected sample was then calculated using the BIA evaluation software. Concentrations of the QC samples and temperature stressed samples were back-calculated by interpolating the obtained slopes of these samples to the calibrator curve. Obtained values were within +/−20% of the nominal concentration of the tested samples and are expressed as average relative accuracy (avg % RA) (Table 13).
# human Gal10-His [6] = molecular target: T2, human Gal10-His; test: SPR against T0 reference; sample 4 weeks at 5 C, then nebulized
# Experimental: The functional active concentration of the candidates was then assessed by SPR on a Biacore 3000 instrument (FIG. 4). All samples were evaluated with methods meeting the standard qualification criteria. Aliquots were tested at predefined test concentrations against titration curves from reference samples (T0, −80° C. storage) and in the presence of quality control (QC) samples covering a range of 70-130% relative activity (% RA) towards the reference material.
# comparison/reference ⁽¹⁾ samples correspond to aliquots kept at +37° C. for 4 weeks ⁽²⁾ samples correspond to aliquots kept at +5° C. for 4 weeks prior to nebulization. In brief, samples were nebulized with an Aerogen Solo active vibrating mesh nebulizer that converted a drug solution into an inhalable aerosol. Three different devices for each time-point were used per clone and results are reported by the device (nebulizer) serial number. In case of device fouling, indicated by longer nebulization times […]
# human Gal10-His [7] = molecular target: T2, human Gal10-His; test: SPR Biacore 3000, hFab on human Gal10-His captured by anti-His CM5
# human Gal10-His [8] = molecular target: T2, human Gal10-His; test: SPR Biacore 3000, hFab on captured human Gal10-His; column head prints (M), the text gives nM
# human Gal10-His [9] = molecular target: T2, human Gal10-His; test: competition ELISA on coated Gal10-His; hFab 20 ug/mL, competitor g7B07-hFab-Biot, streptavidin-HRP
# Experimental: An epitope binning analysis of the humanized Fab clones was carried out in comparison with the humanized Fab of g7B07.
# For this experiment, a sub-optimal concentration of the biotinylated clone g7B07-humanized Fab was added to the Gal10 coated plate and pre-incubated with the selected clones. The percentage competition with g7B07 was then determined (Table 17). Motavizumab (Mota) in a human Fab backbone was used as a negative control (0% competition). Clone g7B07 was used as the positive control for competition and was therefore set as the 100% competition value. The anti-human specific clone 1D11 (binding to Tyrosine 69 residue) was included in the tested panel as a negative control for competition with 7B07 for Gal10 binding because it was known that clone 1D11 binds to the opposite side of Gal10 (including Tyrosine 69).
binder,measurement,setting,value
"g23H09 (Fab) (Fab, V domains shown, same VH/VL) VH: EVQLLESGGGLVQPGGSLRLSCAASGFTFRSYDMSWVRQAPGKGLEWVSAIAQFQHWTYYADSVKGRFTISRDNSKNTLYLQMNSLRAEDTAVYYCATTHGIGTLGFGSWGQGTLVTVSS VL: SYELTQPLSVSVALGQTARITCDGNNIGSKSAQWYQQKPGQAPVLVIYADEYRPEGIPERFSGSNSGNTATLTISRAQAGDEADYYCQVWDGSAAVFGGGTQLTVL","recGal10 crystal dissolution EC50 (T2 h), Assay 1, nebulized",[1],297 µg/mL
same,"recGal10 crystal dissolution EC50 (T2 h), Assay 1, stressed (4 W at 37 C)",[1],361 µg/mL
same,"recGal10 crystal dissolution EC50 (T2 h), Assay 1, unstressed (T0)",[1],252 µg/mL
same,"recGal10 crystal dissolution EC50 (T2 h), Assay 2, nebulized",[1],209 µg/mL
same,"recGal10 crystal dissolution EC50 (T2 h), Assay 2, stressed (4 W at 37 C)",[1],191 µg/mL
same,"recGal10 crystal dissolution EC50 (T2 h), Assay 2, unstressed (T0)",[1],190 µg/mL
same,fold better affinity than g7B07,[2],7 fold
same,Kd,[3],9.9 nM
same,koff,[3],0.0095 s⁻¹
same,fold better affinity than g7B07,human Gal10-His [4],2.8 fold
same,% Relative Activity (RA) on Biacore,human Gal10-His [5],98%
same,% relative activity by SPR,human Gal10-His [6],119%
same,Amplitude R0,human Gal10-His [7],722 RU
same,koff,human Gal10-His [7],0.0031 s⁻¹
same,kon,human Gal10-His [7],590000 M⁻¹ s⁻¹
same,Kd,human Gal10-His [8],5.34 nM
same,% Competition against g7B07-Biot,human Gal10-His [9],94.3%
same,Mean OD value,human Gal10-His [9],0.31 OD
